Measurements: patent US20260139057A1 (University of California, published 2026)

Tests used:
[1] = target: T1, integrin αvβ1 ectodomain (immobilized) (Homo sapiens (Human), UniProt P06756 31-992; P05556 21-728); assay: binding to immobilized ectodomains
T1 construct: R&D Systems; copies: 1 + 1

[2] = target: T2, integrin αvβ5 ectodomain (immobilized) (Homo sapiens (Human), UniProt P06756 31-992; P18084 24-719); assay: binding to immobilized ectodomains
T2 construct: R&D Systems; copies: 1 + 1

[3] = target: T3, integrin αvβ6 ectodomain (immobilized) (human, UniProt P06756 31-992; P18564 22-709); assay: binding to immobilized αvβ6 ectodomain
T3 construct: extracellular domain; Bought from R&D Systems or made in ExpiCHO cells; also called immobilized human αvβ6

[4] = target: T4, integrin αvβ3 on HEK 293 cells stably expressing αvβ3 (Homo sapiens (Human), UniProt P06756 31-1048; P05106 27-788); assay: flow cytometry on HEK 293 cells stably expressing αvβ3
T4 construct: also called αvβ3 expressing 293 cells
Source text: (§1) A) Binding of anti-β3 (AP3) relative to F12 IgG4, H4C8 RGD1 IgG4,H4C8 RGD3 IgG4, H3C8 RGD3 with VL Fr4 V108/L109 (mouse) IgG4, H4C8 RGD3 IgG4, H3C8 RGD3 VL Fr4 K108/V109 (human) IgG4, H4C8 RGD1 VH Fr3 E72, H4C8 RGD3 VH Fr3 E72 IgG4. HEK 293 cells stably expressing αvβ3 were stained and the percentage of relative binding to the mean fluorescence intensity of AP3 is shown, B) Expi293 cells transiently expressing αvβ6 were stained and the percentage of relative binding to the mean fluorescence intensity of 3G9 is shown, C) HEK 293 cells stably expressing αvβ8 were stained and the percentage of relative binding to the mean fluorescence intensity of HuF12 is shown. All primary antibodies were used at 2.5 ug/ml. […] Binding or 3G9 is shown and percent binding of antibodies relative to 3G9 binding to αvβ6 is shown. Dotted line indicate binding observed with each positive control antibody,
(§2) RGD ligands bind promiscuously to a number of integrins. A highly desirable quality in RGD-mimetics is to retain specificity for some but not all integrins. One highly desirable property would be a dual inhibitor to both the αvβ8- and αvβ6-integrins, without cross-reactivity to other integrins. This property would facilitate specific targeting of integrin-mediated TGF-β activation without the liability of side-effects mediated by broadly blocking other integrins. We first measured binding to αvβ3 expressing 293 cells. Binding of anti-β3 (AP3) relative to F12 IgG4, H4C8 RGD1 IgG4,H4C8 RGD3 IgG4, H3C8 RGD3 with VL Fr4 V108/L109 (mouse) IgG4, H4C8 RGD3 IgG4, H3C8 RGD3 VI Fr4 K108/V109 (human) IgG4, H4C8 RGD1 Vh Fr3 E72, H4C8 RGD3 Vh Fr3 E72 IgG4. […] Expi293 cells transiently expressing αvβ6 were stained and the percentage of relative binding to the mean fluorescence intensity of anti-β6 (3G9) determined.

[5] = target: T5, human integrin αvβ8 on transfected cells (CHO cells stably transfected; HEK 293 cells stably expressing αvβ8) (human, UniProt P06756 31-1048; P26012 43-769); assay: flow cytometry on HEK 293 cells stably expressing αvβ8
T5 construct: whole, on cells; also called CHO αvβ8 cells; αvβ8 expressing CHO cells
Source text: as §1, with “FIG. 33 H4C8 RGD3 and H4C8 RGD1 show specificity for αvβ6 and αvβ8, VL Fr4 K108/V109 humanization improves or maintains binding, VH Fr4 Q72 improves binding over E72. A)” for “A)”, “antibody, […]” for “antibody,”

[6] = target: T6, integrin αvβ6 on transfected cells (CHO cells; Expi293 cells transiently expressing αvβ6) (human, UniProt P06756 31-1048; P18564 22-788); assay: flow cytometry on Expi293 cells transiently expressing αvβ6, antibody at 2.5 µg/ml
T6 construct: whole, on cells; Legend says 'CHO cells expressing human αvβ8 or αvβ6'; read as human; also called αvβ6 expressing CHO cells
Experimental: as §1, with “HEK” for “A) Binding of anti-β3 (AP3) relative to F12 IgG4, H4C8 RGD1 IgG4,H4C8 RGD3 IgG4, H3C8 RGD3 with VL Fr4 V108/L109 (mouse) IgG4, H4C8 RGD3 IgG4, H3C8 RGD3 VL Fr4 K108/V109 (human) IgG4, H4C8 RGD1 VH Fr3 E72, H4C8 RGD3 VH Fr3 E72 IgG4. HEK”
as §2, with “cells.” for “cells. Binding of anti-β3 (AP3) relative to F12 IgG4, H4C8 RGD1 IgG4,H4C8 RGD3 IgG4, H3C8 RGD3 with VL Fr4 V108/L109 (mouse) IgG4, H4C8 RGD3 IgG4, H3C8 RGD3 VI Fr4 K108/V109 (human) IgG4, H4C8 RGD1 Vh Fr3 E72, H4C8 RGD3 Vh Fr3 E72 IgG4.”, “determined. […]” for “determined.”

[7] = target: T5, human integrin αvβ8 on transfected …; assay: flow cytometry on HEK 293 cells stably expressing αvβ8, antibody at 2.5 µg/ml
Source text: as §1, with “FIG. 33 H4C8 RGD3 and H4C8 RGD1 show specificity for αvβ6 and αvβ8, VL Fr4 K108/V109 humanization improves or maintains binding, VH Fr4 Q72 improves binding over E72. A)” for “A)”, “antibody, […]” for “antibody,”

[8] = target: recombinant human integrin αvβ8 ectodomain (human, UniProt P06756 31-992; P26012 43-681); assay: cell-based or functional assay
[9] = target: T3, integrin αvβ6 ectodomain (immobilized); assay: binding to immobilized integrin ectodomains blocked with BSA
[10] = target: T1, integrin αvβ1 ectodomain (immobilized); assay: as above
[11] = target: T2, integrin αvβ5 ectodomain (immobilized); assay: as above
[12] = target: T6, integrin αvβ6 on transfected cells (CHO …); assay: flow cytometry on CHO cells expressing αvβ6, antibodies as IgG4

T6 sequence (P06756 31-1048, chain 1 of 2): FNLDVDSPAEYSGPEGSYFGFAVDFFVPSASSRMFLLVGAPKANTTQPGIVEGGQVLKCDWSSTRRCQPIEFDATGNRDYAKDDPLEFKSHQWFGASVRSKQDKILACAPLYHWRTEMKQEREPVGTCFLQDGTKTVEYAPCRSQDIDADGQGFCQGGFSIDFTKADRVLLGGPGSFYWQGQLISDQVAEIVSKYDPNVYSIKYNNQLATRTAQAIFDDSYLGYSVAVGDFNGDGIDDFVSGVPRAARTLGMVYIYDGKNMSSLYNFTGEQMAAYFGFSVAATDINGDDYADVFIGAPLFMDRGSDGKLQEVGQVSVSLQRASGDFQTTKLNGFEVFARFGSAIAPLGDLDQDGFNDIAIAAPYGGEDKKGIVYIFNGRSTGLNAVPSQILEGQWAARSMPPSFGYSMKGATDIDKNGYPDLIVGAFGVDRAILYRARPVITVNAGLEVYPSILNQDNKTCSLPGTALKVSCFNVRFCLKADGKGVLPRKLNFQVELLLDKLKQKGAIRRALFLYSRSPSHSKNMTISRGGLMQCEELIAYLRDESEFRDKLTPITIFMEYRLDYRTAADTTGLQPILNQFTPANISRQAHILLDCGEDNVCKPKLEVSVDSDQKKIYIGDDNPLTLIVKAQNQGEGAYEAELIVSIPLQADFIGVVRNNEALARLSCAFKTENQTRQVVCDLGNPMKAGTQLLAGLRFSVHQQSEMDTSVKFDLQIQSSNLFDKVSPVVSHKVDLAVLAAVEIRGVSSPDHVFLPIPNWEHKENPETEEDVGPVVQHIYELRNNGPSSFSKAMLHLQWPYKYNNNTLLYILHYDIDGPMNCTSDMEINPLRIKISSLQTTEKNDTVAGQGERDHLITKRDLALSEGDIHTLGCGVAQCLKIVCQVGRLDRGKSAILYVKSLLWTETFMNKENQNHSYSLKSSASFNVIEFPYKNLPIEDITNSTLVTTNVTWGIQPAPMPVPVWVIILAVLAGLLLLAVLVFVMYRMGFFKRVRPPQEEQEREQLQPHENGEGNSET
T6 sequence (P18564 22-788, chain 2 of 2): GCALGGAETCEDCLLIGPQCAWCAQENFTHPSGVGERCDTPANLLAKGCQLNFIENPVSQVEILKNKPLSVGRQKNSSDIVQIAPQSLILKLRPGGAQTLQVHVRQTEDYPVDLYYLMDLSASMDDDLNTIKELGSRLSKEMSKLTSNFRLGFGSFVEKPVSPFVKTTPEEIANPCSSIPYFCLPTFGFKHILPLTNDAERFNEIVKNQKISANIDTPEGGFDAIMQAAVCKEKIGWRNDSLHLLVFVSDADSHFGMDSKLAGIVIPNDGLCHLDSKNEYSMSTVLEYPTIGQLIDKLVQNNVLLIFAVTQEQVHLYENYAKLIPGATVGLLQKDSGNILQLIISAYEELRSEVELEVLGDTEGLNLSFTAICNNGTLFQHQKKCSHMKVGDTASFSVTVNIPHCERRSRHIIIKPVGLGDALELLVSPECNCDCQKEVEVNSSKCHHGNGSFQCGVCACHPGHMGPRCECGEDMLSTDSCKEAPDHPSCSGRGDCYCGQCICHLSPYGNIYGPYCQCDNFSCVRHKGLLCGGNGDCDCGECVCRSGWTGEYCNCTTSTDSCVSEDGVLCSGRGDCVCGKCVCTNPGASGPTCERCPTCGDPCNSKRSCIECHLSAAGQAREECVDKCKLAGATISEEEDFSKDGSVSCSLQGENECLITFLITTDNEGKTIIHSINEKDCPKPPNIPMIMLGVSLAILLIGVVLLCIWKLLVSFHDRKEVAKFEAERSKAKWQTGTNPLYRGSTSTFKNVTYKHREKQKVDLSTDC
T4 sequence (P06756 31-1048 limits assumed, chain 1 of 2): as the sequence (P06756 31-1048, chain 1 of 2) above
T4 sequence (P05106 27-788 limits assumed, chain 2 of 2): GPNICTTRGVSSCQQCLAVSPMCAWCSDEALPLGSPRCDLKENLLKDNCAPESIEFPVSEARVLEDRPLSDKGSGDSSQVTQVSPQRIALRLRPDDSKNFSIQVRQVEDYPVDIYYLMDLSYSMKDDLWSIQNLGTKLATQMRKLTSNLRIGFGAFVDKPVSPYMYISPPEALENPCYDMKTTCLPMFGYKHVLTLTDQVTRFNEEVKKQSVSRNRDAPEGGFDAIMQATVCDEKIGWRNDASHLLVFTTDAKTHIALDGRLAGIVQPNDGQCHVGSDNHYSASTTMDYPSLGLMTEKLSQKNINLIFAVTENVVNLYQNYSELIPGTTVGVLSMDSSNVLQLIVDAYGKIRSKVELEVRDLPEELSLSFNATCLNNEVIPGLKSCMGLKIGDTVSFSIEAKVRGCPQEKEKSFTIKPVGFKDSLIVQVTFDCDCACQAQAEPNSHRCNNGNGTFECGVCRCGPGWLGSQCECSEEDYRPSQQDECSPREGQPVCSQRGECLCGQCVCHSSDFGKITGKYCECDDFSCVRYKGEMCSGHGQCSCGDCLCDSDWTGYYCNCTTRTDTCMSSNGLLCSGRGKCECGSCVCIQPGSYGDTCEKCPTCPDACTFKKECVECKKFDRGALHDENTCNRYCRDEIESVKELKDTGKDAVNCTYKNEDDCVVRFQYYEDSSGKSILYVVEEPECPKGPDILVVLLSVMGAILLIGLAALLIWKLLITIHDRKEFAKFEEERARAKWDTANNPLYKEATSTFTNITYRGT
T1 sequence (P06756 31-992 limits assumed, chain 1 of 2): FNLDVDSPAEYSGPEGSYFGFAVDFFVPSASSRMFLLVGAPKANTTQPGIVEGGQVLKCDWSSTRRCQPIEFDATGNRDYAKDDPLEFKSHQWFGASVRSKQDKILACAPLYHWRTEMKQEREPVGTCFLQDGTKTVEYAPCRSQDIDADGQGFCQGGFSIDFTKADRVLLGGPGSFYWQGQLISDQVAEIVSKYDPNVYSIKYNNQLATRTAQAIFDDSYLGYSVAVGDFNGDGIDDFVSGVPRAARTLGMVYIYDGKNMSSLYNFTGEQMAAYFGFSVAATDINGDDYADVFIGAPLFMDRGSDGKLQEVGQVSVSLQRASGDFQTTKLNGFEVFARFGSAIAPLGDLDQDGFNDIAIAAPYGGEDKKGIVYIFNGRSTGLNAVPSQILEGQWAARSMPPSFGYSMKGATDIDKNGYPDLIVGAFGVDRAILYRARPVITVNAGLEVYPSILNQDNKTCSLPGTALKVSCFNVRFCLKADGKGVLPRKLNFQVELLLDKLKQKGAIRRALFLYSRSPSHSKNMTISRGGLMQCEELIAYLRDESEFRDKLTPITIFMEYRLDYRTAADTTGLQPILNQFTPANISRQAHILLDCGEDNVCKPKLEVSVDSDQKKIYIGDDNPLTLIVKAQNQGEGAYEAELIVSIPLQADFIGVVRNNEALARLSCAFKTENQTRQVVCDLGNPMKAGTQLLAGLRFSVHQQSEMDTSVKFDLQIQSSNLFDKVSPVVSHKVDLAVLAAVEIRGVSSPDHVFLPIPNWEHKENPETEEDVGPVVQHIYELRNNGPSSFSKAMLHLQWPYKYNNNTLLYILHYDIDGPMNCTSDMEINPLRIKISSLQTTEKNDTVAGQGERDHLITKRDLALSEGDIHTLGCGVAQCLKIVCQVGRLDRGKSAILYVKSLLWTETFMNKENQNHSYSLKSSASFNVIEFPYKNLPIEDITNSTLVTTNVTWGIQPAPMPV
T1 sequence (P05556 21-728 limits assumed, chain 2 of 2): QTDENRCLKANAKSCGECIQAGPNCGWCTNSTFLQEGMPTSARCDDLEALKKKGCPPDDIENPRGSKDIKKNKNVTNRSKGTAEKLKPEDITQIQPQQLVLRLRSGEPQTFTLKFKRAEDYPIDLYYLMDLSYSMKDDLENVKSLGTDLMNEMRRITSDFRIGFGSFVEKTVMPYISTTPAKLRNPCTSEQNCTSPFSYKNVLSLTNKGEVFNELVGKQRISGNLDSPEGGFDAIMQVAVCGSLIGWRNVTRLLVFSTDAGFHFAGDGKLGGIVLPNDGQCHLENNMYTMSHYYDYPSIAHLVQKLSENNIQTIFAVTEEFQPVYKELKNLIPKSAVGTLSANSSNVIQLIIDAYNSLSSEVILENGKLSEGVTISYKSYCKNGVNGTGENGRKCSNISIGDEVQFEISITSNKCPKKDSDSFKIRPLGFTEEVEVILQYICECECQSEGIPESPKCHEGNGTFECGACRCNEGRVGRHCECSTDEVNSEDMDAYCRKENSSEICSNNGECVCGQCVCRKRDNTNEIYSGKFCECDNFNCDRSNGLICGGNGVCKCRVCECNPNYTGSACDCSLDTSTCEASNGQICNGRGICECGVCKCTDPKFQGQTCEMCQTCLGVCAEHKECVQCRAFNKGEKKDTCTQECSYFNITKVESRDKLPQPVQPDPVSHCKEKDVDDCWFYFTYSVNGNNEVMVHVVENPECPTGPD
T3 sequence (P06756 31-992, chain 1 of 2): as the sequence (P06756 31-992 limits assumed, chain 1 of 2) above
T3 sequence (P18564 22-709, chain 2 of 2): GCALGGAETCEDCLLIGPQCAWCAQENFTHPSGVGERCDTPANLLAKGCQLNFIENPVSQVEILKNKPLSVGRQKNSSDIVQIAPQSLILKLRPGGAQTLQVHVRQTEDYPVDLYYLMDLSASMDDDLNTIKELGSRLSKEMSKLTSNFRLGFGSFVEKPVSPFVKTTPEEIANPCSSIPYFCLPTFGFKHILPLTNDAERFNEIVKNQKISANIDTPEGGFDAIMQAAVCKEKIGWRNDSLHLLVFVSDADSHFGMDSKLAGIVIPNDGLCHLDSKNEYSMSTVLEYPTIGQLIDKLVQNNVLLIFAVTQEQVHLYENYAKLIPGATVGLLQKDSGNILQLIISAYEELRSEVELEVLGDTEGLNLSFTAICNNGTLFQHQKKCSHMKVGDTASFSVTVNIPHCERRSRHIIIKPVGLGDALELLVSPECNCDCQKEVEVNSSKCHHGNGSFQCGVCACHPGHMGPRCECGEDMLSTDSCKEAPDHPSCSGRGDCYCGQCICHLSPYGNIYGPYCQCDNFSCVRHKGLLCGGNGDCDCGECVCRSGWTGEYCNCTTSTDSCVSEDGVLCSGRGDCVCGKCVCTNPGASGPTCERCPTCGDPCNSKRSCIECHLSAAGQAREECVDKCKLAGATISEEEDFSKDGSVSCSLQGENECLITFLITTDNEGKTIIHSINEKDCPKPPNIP

Binder | binding result [1] | binding result [2] | binding result [3] | binding result [4] | binding result [5] | binding result [6] | binding result [7] | ED50 of the inhibition of αvβ8-mediated TGF-β activation (immobilized human αvβ8, TMLC GARP/L-TGF-β reporter cells) [8] [µg/mL] | binding result [9] | binding result [10] | binding result [11] | binding result [12]
H4C8 RGD1 VH Fr3 E72 (antibody, IgG4, V domains shown) VH: QVQLVQSGAEVKKPGASVKVSCKVSGYTLTRQSMHWVRQAPGKGLEWMGRINTETGEPTYAQKFQGRVTMTEDTSTDTAYMELSSLRSEDTAVYFCAIFYYGRDTWGQGTTVTVSS VL: EIVMTQSPATLSVSPGERVTLSCKSSQSLLRRGDLATIHGNALAWYQQKPGQAPRLLIYWASTRETGVPARFSGSGSGTEFTLTISSLQSEDFAVYYCKQSYNLLSFGQGTKVEIKR | no binding | no binding | binds | no binding (tested: 2.5 µg/ml) | no binding (tested: 2.5 µg/ml) | binds |  |  |  |  |  | 
H4C8 RGD3 VH Fr3 E72 IgG4 (antibody, V domains shown, IgG4) VH: QVQLVQSGAEVKKPGASVKVSCKVSGYTLTRQSMHWVRQAPGKGLEWMGRINTETGEPTYAQKFQGRVTMTEDTSTDTAYMELSSLRSEDTAVYFCAIFYYGRDTWGQGTTVTVSS VL: EIVMTQSPATLSVSPGERVTLSCKSSQSLLGRGDLGRLKKNALAWYQQKPGQAPRLLIYWASTRETGVPARFSGSGSGTEFTLTISSLQSEDFAVYYCKQSYNLLSFGQGTKVEIKR | no binding | no binding | binds | no binding (tested: 2.5 µg/ml) |  | binds | binds |  |  |  |  | 
HuC6D4 F12 IgG4 (antibody, also called HuF12) heavy: QIQLVQSGAEVKKPGASVKISCKASGYTFTKYSMHWVRQAPGQGLEWVARINTETGEPTFADDFRGRFTVTLDTSTSTAYLEIRSLRSDDTAVYFCAIFYYGRDTWGQGTTLTVSSASTKGPSVFPLAPCSRSTSESTAALGCLVKDYFPEPVTVSWNSGALTSGVHTFPAVLQSSGLYSLSSVVTVPSSSLGTKTYTCNVDHKPSNTKVDKRVESKYGPPCPPCPAPEFLGGPSVFLFPPKPKDTLMISRTPEVTCVVVDVSQEDPEVQFNWYVDGVEVHNAKTKPREEQFNSTYRVVSVLTVLHQDWLNGKEYKCKVSNKGLPSSIEKTISKAKGQPREPQVYTLPPSQEEMTKNQVSLTCLVKGFYPSDIAVEWESNGQPENNYKTTPPVLDSDGSFFLYSKLTVDKSRWQEGNVFSCSVMHEALHNHYTQKSLSLSPGK VL: EIVMTQSPATLSVSPGERVTMSCKSSQSLLHSRSRKNYLAWYQQKPGQAPRLLIYWASTRESGVPARFSGSGSGTEFTLTISSVQSEDFAVYYCKQSYNLLSFGQGTVLEIKR |  |  |  | no binding (tested: 2.5 µg/ml) |  |  |  | 0.14 | no binding | no binding | no binding | no binding (tested: 1 µg/mL)
